Reference: patent US7087215B2 (priority 1998, dated 2006)

What was measured:
[1] = Plasma insulin levels by RIA method after injection or mouth spray in diabetic volunteers; assay type: in vivo, human
Experimental: (§1) Ten diabetic volunteers were asked to fast overnight and not have any breakfast prior to dosing. On the first day, the volunteers were given 10 units insulin by injection (regular fast acting insulin, obtained from Eli Lilly). On the second day, the volunteers were given 60 units insulin of this example (10 puffs of 6 units each) into the mouth, without inhalation. Plasma insulin levels were measured at intervals by the RIA method for 3 hours. Blood glucose levels were also monitored at intervals using Bayer's glucometer Elite for 3 hours.
(§2) Tests were also conducted with 40 units of spray at 10 puffs each, and compared to 10 units injected by measuring plasma levels and glucose levels as above. The results are shown in Table 7 (plasma) and 8 (glucose).
as §1, with “injection.” for “injection (regular fast acting insulin, obtained from Eli Lilly).”
(§3) On the first day, each patient had 7 units regular fast acting insulin, obtained from Eli Lilly, administered by injection. On the second day, each patient was given 70 units of the insulin formulation of this Example (7 puffs of 10 unit each) into the mouth, without inhalation. Blood samples were collected and plasma glucose levels were measured at intervals using Bayer's glucometer Elite for 3 hours. Insulin levels were also monitored at intervals by the RIA method for 3 hours.

blood glucose levels = test: Blood glucose levels by Bayer's glucometer Elite after injection or mouth spray in fasted diabetic volunteers; assay type: in vivo, human
Experimental: as §1, §2
as §1, with “injection.” for “injection (regular fast acting insulin, obtained from Eli Lilly).”
as §3

[2] = time 0 min, insulin 10 units by injection, Example 2 60 units by mouth spray, average of ten fasted diabetic volunteers
[3] = time 0 min, insulin 10 units by injection, Example 3 60 units by mouth spray, average of ten fasted diabetic volunteers
[4] = time 0 min, insulin 10 units injected, Example 2 40 units of spray, measured as above
[5] = time 15 min, insulin 10 units by injection, Example 2 60 units by mouth spray, average of ten fasted diabetic volunteers
[6] = time 15 min, insulin 10 units by injection, Example 3 60 units by mouth spray, average of ten fasted diabetic volunteers
[7] = time 15 min, insulin 10 units injected, Example 2 40 units of spray, measured as above
[8] = time 30 min, insulin 10 units by injection, Example 2 60 units by mouth spray, average of ten fasted diabetic volunteers
[9] = time 30 min, insulin 10 units by injection, Example 3 60 units by mouth spray, average of ten fasted diabetic volunteers
[10] = time 30 min, insulin 10 units injected, Example 2 40 units of spray, measured as above
[11] = time 45 min, insulin 10 units by injection, Example 2 60 units by mouth spray, average of ten fasted diabetic volunteers
[12] = time 45 min, insulin 10 units by injection, Example 3 60 units by mouth spray, average of ten fasted diabetic volunteers
[13] = time 60 min, insulin 10 units by injection, Example 2 60 units by mouth spray, average of ten fasted diabetic volunteers
[14] = time 60 min, insulin 10 units by injection, Example 3 60 units by mouth spray, average of ten fasted diabetic volunteers
[15] = time 60 min, insulin 10 units injected, Example 2 40 units of spray, measured as above
[16] = time 90 min, insulin 10 units by injection, Example 2 60 units by mouth spray, average of ten fasted diabetic volunteers
[17] = time 90 min, insulin 10 units by injection, Example 3 60 units by mouth spray, average of ten fasted diabetic volunteers
[18] = time 90 min, insulin 10 units injected, Example 2 40 units of spray, measured as above
[19] = time 120 min, insulin 10 units by injection, Example 2 60 units by mouth spray, average of ten fasted diabetic volunteers
[20] = time 120 min, insulin 10 units by injection, Example 3 60 units by mouth spray, average of ten fasted diabetic volunteers
[21] = time 120 min, insulin 10 units injected, Example 2 40 units of spray, measured as above
[22] = time 150 min, insulin 10 units by injection, Example 2 60 units by mouth spray, average of ten fasted diabetic volunteers
[23] = time 150 min, insulin 10 units by injection, Example 3 60 units by mouth spray, average of ten fasted diabetic volunteers
[24] = time 150 min, insulin 10 units injected, Example 2 40 units of spray, measured as above
[25] = time 180 min, insulin 10 units by injection, Example 2 60 units by mouth spray, average of ten fasted diabetic volunteers
[26] = time 180 min, insulin 10 units by injection, Example 3 60 units by mouth spray, average of ten fasted diabetic volunteers
[27] = time 180 min, insulin 10 units injected, Example 2 40 units of spray, measured as above

## insulin
[1]; [2]
  Plasma insulin level: 10 micromoles per ml
[1]; [3]
  Plasma insulin level: 9 micromoles per ml
[1]; [4]
  Plasma insulin level: 9 micromoles per ml
[1]; [5]
  Plasma insulin level: 9.1 micromoles per ml
[1]; [6]
  Plasma insulin level: 9.1 micromoles per ml
[1]; [7]
  Plasma insulin level: 9 micromoles per ml
[1]; [8]
  Plasma insulin level: 11 micromoles per ml
[1]; [9]
  Plasma insulin level: 14 micromoles per ml
[1]; [10]
  Plasma insulin level: 13 micromoles per ml
[1]; [11]
  Plasma insulin level: 16 micromoles per ml
[1]; [12]
  Plasma insulin level: 20 micromoles per ml
[1]; time 45 min, insulin 10 units injected, Example 2 40 units of spray, measured as above
  Plasma insulin level: 19 micromoles per ml
[1]; [13]
  Plasma insulin level: 31 micromoles per ml
[1]; [14]
  Plasma insulin level: 40 micromoles per ml
[1]; [15]
  Plasma insulin level: 34 micromoles per ml
[1]; [16]
  Plasma insulin level: 45 micromoles per ml
[1]; [17]
  Plasma insulin level: 48 micromoles per ml
[1]; [18]
  Plasma insulin level: 45 micromoles per ml
[1]; [19]
  Plasma insulin level: 32 micromoles per ml
[1]; [20]
  Plasma insulin level: 39 micromoles per ml
[1]; [21]
  Plasma insulin level: 42 micromoles per ml
[1]; [22]
  Plasma insulin level: 25 micromoles per ml
[1]; [23]
  Plasma insulin level: 34 micromoles per ml
[1]; [24]
  Plasma insulin level: 35 micromoles per ml
[1]; [25]
  Plasma insulin level: 20 micromoles per ml
[1]; [26]
  Plasma insulin level: 27 micromoles per ml
[1]; [27]
  Plasma insulin level: 24 micromoles per ml
Blood glucose levels; [2]
  Blood glucose level: 6.1 millimoles per liter
Blood glucose levels; [3]
  Blood glucose level: 6.6 millimoles per liter
Blood glucose levels; [4]
  Blood glucose level: 5.8 millimoles per liter
Blood glucose levels; [5]
  Blood glucose level: 6.0 millimoles per liter
Blood glucose levels; [6]
  Blood glucose level: 6.5 millimoles per liter
Blood glucose levels; [7]
  Blood glucose level: 6.0 millimoles per liter
Blood glucose levels; [8]
  Blood glucose level: 5.9 millimoles per liter
Blood glucose levels; [9]
  Blood glucose level: 6.1 millimoles per liter
Blood glucose levels; [10]
  Blood glucose level: 5.9 millimoles per liter
Blood glucose levels; [11]
  Blood glucose level: 5.5 millimoles per liter
Blood glucose levels; [12]
  Blood glucose level: 5.5 millimoles per liter
Blood glucose levels; [13]
  Blood glucose level: 5.1 millimoles per liter
Blood glucose levels; [14]
  Blood glucose level: 4.9 millimoles per liter
Blood glucose levels; [15]
  Blood glucose level: 5.5 millimoles per liter
Blood glucose levels; [16]
  Blood glucose level: 4.5 millimoles per liter
Blood glucose levels; [17]
  Blood glucose level: 4.5 millimoles per liter
Blood glucose levels; [18]
  Blood glucose level: 5.0 millimoles per liter
Blood glucose levels; [19]
  Blood glucose level: 3.8 millimoles per liter
Blood glucose levels; [20]
  Blood glucose level: 3.8 millimoles per liter
Blood glucose levels; [21]
  Blood glucose level: 4.5 millimoles per liter
Blood glucose levels; [22]
  Blood glucose level: 4.2 millimoles per liter
Blood glucose levels; [23]
  Blood glucose level: 3.5 millimoles per liter
Blood glucose levels; [24]
  Blood glucose level: 4.1 millimoles per liter
Blood glucose levels; [25]
  Blood glucose level: 4.4 millimoles per liter
Blood glucose levels; [26]
  Blood glucose level: 4.4 millimoles per liter
Blood glucose levels; [27]
  Blood glucose level: 3.9 millimoles per liter
